Reference: patent US20110021746A1 (published 2011)

Biological target: T1, TNF-α (UniProt P01375 77-233, biotinylated)
T1 construct: also called TNF-alpha; biotintylated TNF-α soluble protein (R&D Systems)
Assay: Octet BLI, biotinylated TNF-α on streptavidin tips
Procedure: The target protein was biotintylated TNF-α soluble protein (R&D Systems) and is at a concentration of 0.25 ug/ml for loading onto the streptavidin sensor tips. […] The Octet was run using the manufacturers protocol for Basic Kinetic Assay.

T1 sequence (P01375 77-233 limits assumed): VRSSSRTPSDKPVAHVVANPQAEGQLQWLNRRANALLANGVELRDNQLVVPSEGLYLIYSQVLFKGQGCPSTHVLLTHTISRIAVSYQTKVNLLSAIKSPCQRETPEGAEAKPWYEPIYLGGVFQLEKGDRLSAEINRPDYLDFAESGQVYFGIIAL

B1: TNF-α binder R41A6 (designed binder)
chain: NVSPPRRARVTDATETTITISWEHSEDDCYSYIYYFQVDAVPANGQTPIQRTISGYETYYTITGLQPGTDYKIYLYTLNSAGFCPPYSKPVVIDAST
notes: 14FN3 variant; for the Octet expressed from pET-20b with pelB signal and C-terminal hexahistidine tag; also called TNF A6
- Kd: 20 to 100 nM
